From US20120316071A1 (published 2012)
Substitutions are numbered along the chain they refer to. Names may count otherwise.

B1: Fab VH5-51_IGHD5-18*01>3_IGHJ4*01 G100K/G104T G24T/S28R/G35V (H:KT TRV) & V3-4_IGLJ1*01 T78V (Fab, V domains shown)
VH: EVQLVQSGAEVKKPGESLKISCKTSGYRFTSYWIVWVRQMPGKGLEWMGIIYPGDSDTRYSPSFQGQVTISADKSISTAYLQWSSLKASDTAMYYCARRKYSYTYDYFDYWGQGTLVTVSS
VL: QTVVTQEPSFSVSPGGTVTLTCGLSSGSVSTSYYPSWYQQTPGQAPRTLIYSTNTRSSGVPDRFSGSILGNKAALTIVGAQADDESDYYCVLYMGSGISYVFGTGTKVTVL
notes: Fab; expressed in E. coli with CH1 (Plasmid A, His6 and Flag tags) and lambda CL (Plasmid E); also called H:KT TRV & T78V
B2: Fab VH5-51_IGHD5-18*01>3_IGHJ4*01 G100K/G104T G24T/S28R/G35V (H:KT TRV) & V3-4_IGLJ1*01 T78K (Fab, V domains shown)
VH: B1 VH
VL: B1 VL with V78K
notes: Fab; expressed in E. coli with CH1 (Plasmid A, His6 and Flag tags) and lambda CL (Plasmid E); also called H:KT TRV & T78K
B3: Fab VH5-51_IGHD5-18*01>3_IGHJ4*01 G100K/G104T G24T/S28R/G35V & V3-4_IGLJ1*01 V91L/S96P (Fab, V domains shown)
VH: B1 VH
VL: B1 VL with V78T, V91L, S96P
notes: Fab expressed in E. coli; heavy chain vector adds CH1 with His6 and Flag tags, light chain vector adds lambda CL; Template of the S52, T53 and S57 light chain mutants; also called H:KT TRV & L:LP
B4: Fab VH5-51_IGHD5-18*01>3_IGHJ4*01 G100K/G104T G24T/S28R/G35V & V3-4_IGLJ1*01 V91L/S96P S52K (Fab, V domains shown)
VH: B1 VH
VL: B1 VL with S52K, V78T, V91L, S96P
notes: Fab expressed in E. coli; heavy chain vector adds CH1 with His6 and Flag tags, light chain vector adds lambda CL; also called H:KT TRV & L:LP S52K
B5: Fab VH5-51_IGHD5-18*01>3_IGHJ4*01 G100K/G104T G24T/S28R/G35V & V3-4_IGLJ1*01 V91L/S96P T53H (Fab, V domains shown)
VH: B1 VH
VL: B1 VL with T53H, V78T, V91L, S96P
notes: Fab expressed in E. coli; heavy chain vector adds CH1 with His6 and Flag tags, light chain vector adds lambda CL; also called H:KT TRV & L:LP T53H
B6: Fab VH5-51_IGHD5-18*01>3_IGHJ4*01 G100K/G104T G24T/S28R/G35V & V3-4_IGLJ1*01 V91L/S96P T53D (Fab, V domains shown)
VH: B1 VH
VL: B1 VL with T53D, V78T, V91L, S96P
notes: Fab expressed in E. coli; heavy chain vector adds CH1 with His6 and Flag tags, light chain vector adds lambda CL; also called H:KT TRV & L:LP T53D
B7: Fab VH5-51_IGHD5-18*01>3_IGHJ4*01 G100K/G104T G24T/S28R/G35V & V3-4_IGLJ1*01 V91L/S96P S52Y (Fab, V domains shown)
VH: B1 VH
VL: B1 VL with S52Y, V78T, V91L, S96P
notes: Fab expressed in E. coli; heavy chain vector adds CH1 with His6 and Flag tags, light chain vector adds lambda CL; also called H:KT TRV & L:LP S52Y
B8: Fab VH5-51_IGHD5-18*01>3_IGHJ4*01 G100K/G104T G24T/S28R/G35V & V3-4_IGLJ1*01 V91L/S96P S52H (Fab, V domains shown)
VH: B1 VH
VL: B1 VL with S52H, V78T, V91L, S96P
notes: Fab expressed in E. coli; heavy chain vector adds CH1 with His6 and Flag tags, light chain vector adds lambda CL; also called H:KT TRV & L:LP S52H
B9: Fab VH5-51_IGHD5-18*01>3_IGHJ4*01 G100K/G104T G24T/S28R/G35V & V3-4_IGLJ1*01 V91L/S96P S52N (Fab, V domains shown)
VH: B1 VH
VL: B1 VL with S52N, V78T, V91L, S96P
notes: Fab expressed in E. coli; heavy chain vector adds CH1 with His6 and Flag tags, light chain vector adds lambda CL; also called H:KT TRV & L:LP S52N
B10: Fab VH5-51_IGHD5-18*01>3_IGHJ4*01 G100K/G104T G24T/S28R/G35V & V3-4_IGLJ1*01 V91L/S96P S52E (Fab, V domains shown)
VH: B1 VH
VL: B1 VL with S52E, V78T, V91L, S96P
notes: Fab expressed in E. coli; heavy chain vector adds CH1 with His6 and Flag tags, light chain vector adds lambda CL; also called H:KT TRV & L:LP S52E
B11: Fab VH5-51_IGHD5-18*01>3_IGHJ4*01 G100K/G104T G24T/S28R/G35V & V3-4_IGLJ1*01 V91L/S96P S52V (Fab, V domains shown)
VH: B1 VH
VL: B1 VL with S52V, V78T, V91L, S96P
notes: Fab expressed in E. coli; heavy chain vector adds CH1 with His6 and Flag tags, light chain vector adds lambda CL; also called H:KT TRV & L:LP S52V
B12: Fab VH5-51_IGHD5-18*01>3_IGHJ4*01 G100K/G104T G24T/S28R/G35V & V3-4_IGLJ1*01 V91L/S96P S52I (Fab, V domains shown)
VH: B1 VH
VL: B1 VL with S52I, V78T, V91L, S96P
notes: Fab expressed in E. coli; heavy chain vector adds CH1 with His6 and Flag tags, light chain vector adds lambda CL; also called H:KT TRV & L:LP S52I
B13: Fab VH5-51_IGHD5-18*01>3_IGHJ4*01 G100K/G104T G24T/S28R/G35V & V3-4_IGLJ1*01 V91L/S96P S52F (Fab, V domains shown)
VH: B1 VH
VL: B1 VL with S52F, V78T, V91L, S96P
notes: Fab expressed in E. coli; heavy chain vector adds CH1 with His6 and Flag tags, light chain vector adds lambda CL; also called H:KT TRV & L:LP S52F
B14: Fab VH5-51_IGHD5-18*01>3_IGHJ4*01 G100K/G104T G24T/S28R/G35V & V3-4_IGLJ1*01 V91L/S96P S52D (Fab, V domains shown)
VH: B1 VH
VL: B1 VL with S52D, V78T, V91L, S96P
notes: Fab expressed in E. coli; heavy chain vector adds CH1 with His6 and Flag tags, light chain vector adds lambda CL; also called H:KT TRV & L:LP S52D
B15: Fab VH5-51_IGHD5-18*01>3_IGHJ4*01 G100K/G104T G24T/S28R/G35V & V3-4_IGLJ1*01 V91L/S96P S52W (Fab, V domains shown)
VH: B1 VH
VL: B1 VL with S52W, V78T, V91L, S96P
notes: Fab expressed in E. coli; heavy chain vector adds CH1 with His6 and Flag tags, light chain vector adds lambda CL; also called H:KT TRV & L:LP S52W
B16: Fab VH5-51_IGHD5-18*01>3_IGHJ4*01 G100K/G104T G24T/S28R/G35V & V3-4_IGLJ1*01 V91L/S96P S52P (Fab, V domains shown)
VH: B1 VH
VL: B1 VL with S52P, V78T, V91L, S96P
notes: Fab expressed in E. coli; heavy chain vector adds CH1 with His6 and Flag tags, light chain vector adds lambda CL; also called H:KT TRV & L:LP S52P
B17: Fab VH5-51_IGHD5-18*01>3_IGHJ4*01 G100K/G104T G24T/S28R/G35V & V3-4_IGLJ1*01 V91L/S96P S52M (Fab, V domains shown)
VH: B1 VH
VL: B1 VL with S52M, V78T, V91L, S96P
notes: Fab expressed in E. coli; heavy chain vector adds CH1 with His6 and Flag tags, light chain vector adds lambda CL; also called H:KT TRV & L:LP S52M
B18: Fab VH5-51_IGHD5-18*01>3_IGHJ4*01 G100K/G104T G24T/S28R/G35V & V3-4_IGLJ1*01 V91L/S96P S52T (Fab, V domains shown)
VH: B1 VH
VL: B1 VL with S52T, V78T, V91L, S96P
notes: Fab expressed in E. coli; heavy chain vector adds CH1 with His6 and Flag tags, light chain vector adds lambda CL; also called H:KT TRV & L:LP S52T
B19: Fab VH5-51_IGHD5-18*01>3_IGHJ4*01 G100K/G104T G24T/S28R/G35V & V3-4_IGLJ1*01 V91L/S96P S52G (Fab, V domains shown)
VH: B1 VH
VL: B1 VL with S52G, V78T, V91L, S96P
notes: Fab expressed in E. coli; heavy chain vector adds CH1 with His6 and Flag tags, light chain vector adds lambda CL; also called H:KT TRV & L:LP S52G
B20: Fab VH5-51_IGHD5-18*01>3_IGHJ4*01 G100K/G104T G24T/S28R/G35V & V3-4_IGLJ1*01 V91L/S96P T53F (Fab, V domains shown)
VH: B1 VH
VL: B1 VL with T53F, V78T, V91L, S96P
notes: Fab expressed in E. coli; heavy chain vector adds CH1 with His6 and Flag tags, light chain vector adds lambda CL; also called H:KT TRV & L:LP T53F
B21: Fab VH5-51_IGHD5-18*01>3_IGHJ4*01 G100K/G104T G24T/S28R/G35V & V3-4_IGLJ1*01 V91L/S96P T53E (Fab, V domains shown)
VH: B1 VH
VL: B1 VL with T53E, V78T, V91L, S96P
notes: Fab expressed in E. coli; heavy chain vector adds CH1 with His6 and Flag tags, light chain vector adds lambda CL; also called H:KT TRV & L:LP T53E
B22: Fab VH5-51_IGHD5-18*01>3_IGHJ4*01 G100K/G104T G24T/S28R/G35V & V3-4_IGLJ1*01 V91L/S96P S52Q (Fab, V domains shown)
VH: B1 VH
VL: B1 VL with S52Q, V78T, V91L, S96P
notes: Fab expressed in E. coli; heavy chain vector adds CH1 with His6 and Flag tags, light chain vector adds lambda CL; also called H:KT TRV & L:LP S52Q
B23: Fab VH5-51_IGHD5-18*01>3_IGHJ4*01 G100K/G104T G24T/S28R/G35V & V3-4_IGLJ1*01 V91L/S96P S52L (Fab, V domains shown)
VH: B1 VH
VL: B1 VL with S52L, V78T, V91L, S96P
notes: Fab expressed in E. coli; heavy chain vector adds CH1 with His6 and Flag tags, light chain vector adds lambda CL; also called H:KT TRV & L:LP S52L

The binders below were run against T1, Recombinant Human DLL4 (human, UniProt Q9NR61 27-524) (assay: ELISA, DLL4 coated on plate, Fab at 100 nM, absorbance at 450 nm minus blank).
T1 construct: also called delta-like protein 4; rHuman DLL4

ELISA Signal-blank (100 nM Fab)	Binder
0.34	B1
0.48	B2

The binders below were run against T2, Recombinant Human DLL4 (delta-like protein 4) (human, UniProt Q9NR61 27-524) (assay: ELISA, DLL4 coated on plate, Fab at 100 nM).
T2 construct: also called rHuman DLL4; Delta-like 4

ELISA Signal-blank (100 nM Fab)	Binder
0.39	B3
0.32	B4
0.14	B5
0.16	B6
0.41	B7
0.44	B8
0.45	B9
0.38	B10
0.44	B11
0.42	B12
0.33	B13
0.39	B14
0.29	B15
0.32	B16
0.46	B17
0.34	B18
0.53	B19
0.15	B20
0.09	B21
0.39	B22
0.4	B23
